# Measurements published in patent US20230235013A1 (MABSOLVE, published 2023).
# Residue numbers refer to the chain shown, from its start. Names may count otherwise.
# B1: anti-CD20 human IgG1 L234A/G236R (antibody)
# heavy: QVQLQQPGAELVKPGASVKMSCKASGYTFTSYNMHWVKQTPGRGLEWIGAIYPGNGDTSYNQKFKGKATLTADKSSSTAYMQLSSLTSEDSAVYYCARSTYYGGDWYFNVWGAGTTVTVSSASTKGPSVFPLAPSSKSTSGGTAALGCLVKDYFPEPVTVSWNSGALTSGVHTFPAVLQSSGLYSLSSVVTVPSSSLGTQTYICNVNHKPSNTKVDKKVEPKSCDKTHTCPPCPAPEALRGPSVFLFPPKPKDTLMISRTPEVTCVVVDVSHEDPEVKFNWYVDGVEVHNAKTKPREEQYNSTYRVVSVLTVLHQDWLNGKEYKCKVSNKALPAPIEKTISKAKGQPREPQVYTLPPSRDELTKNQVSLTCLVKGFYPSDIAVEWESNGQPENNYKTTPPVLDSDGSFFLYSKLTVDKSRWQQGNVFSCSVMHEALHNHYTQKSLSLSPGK
# light: QIVLSQSPAILSASPGEKVTMTCRASSSVSYIHWFQQKPGSSPKPWIYATSNLASGVPVRFSGSGSGTSYSLTISRVEAEDAATYYCQQWTSNPPTFGGGTKLEIKRTVAAPSVFIFPPSDEQLKSGTASVVCLLNNFYPREAKVQWKVDNALQSGNSQESVTEQDSKDSTYSLSSTLTLSKADYEKHKVYACEVTHQGLSSPVTKSFNRGEC
# notes: also called 1-9
# B2: anti-CD20 human IgG1 L234A/L235A/G236R (antibody)
# heavy: not shown
# light: B1 light
# notes: also called 2-2; 1-2
# B3: anti-CD20 human IgG1 L234A/L235T/G236R (antibody)
# heavy: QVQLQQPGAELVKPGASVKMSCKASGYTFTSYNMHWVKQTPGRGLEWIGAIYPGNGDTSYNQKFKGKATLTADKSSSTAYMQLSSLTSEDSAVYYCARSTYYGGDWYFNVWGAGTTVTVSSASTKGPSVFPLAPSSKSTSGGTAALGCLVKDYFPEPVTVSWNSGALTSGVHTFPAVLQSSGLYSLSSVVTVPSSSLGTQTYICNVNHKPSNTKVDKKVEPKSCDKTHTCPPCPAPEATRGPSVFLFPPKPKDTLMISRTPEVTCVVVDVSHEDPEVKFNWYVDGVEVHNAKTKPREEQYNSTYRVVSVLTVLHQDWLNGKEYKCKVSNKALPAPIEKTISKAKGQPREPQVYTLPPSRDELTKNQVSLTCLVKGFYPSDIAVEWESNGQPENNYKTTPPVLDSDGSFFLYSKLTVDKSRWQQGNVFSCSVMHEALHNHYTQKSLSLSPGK
# light: B1 light
# notes: also called 2-5; 1-15
# B4: anti-CD20 human IgG1 L234D/L235H/G236R (antibody)
# heavy: QVQLQQPGAELVKPGASVKMSCKASGYTFTSYNMHWVKQTPGRGLEWIGAIYPGNGDTSYNQKFKGKATLTADKSSSTAYMQLSSLTSEDSAVYYCARSTYYGGDWYFNVWGAGTTVTVSSASTKGPSVFPLAPSSKSTSGGTAALGCLVKDYFPEPVTVSWNSGALTSGVHTFPAVLQSSGLYSLSSVVTVPSSSLGTQTYICNVNHKPSNTKVDKKVEPKSCDKTHTCPPCPAPEDHRGPSVFLFPPKPKDTLMISRTPEVTCVVVDVSHEDPEVKFNWYVDGVEVHNAKTKPREEQYNSTYRVVSVLTVLHQDWLNGKEYKCKVSNKALPAPIEKTISKAKGQPREPQVYTLPPSRDELTKNQVSLTCLVKGFYPSDIAVEWESNGQPENNYKTTPPVLDSDGSFFLYSKLTVDKSRWQQGNVFSCSVMHEALHNHYTQKSLSLSPGK
# light: B1 light
# notes: also called 2-6; 1-21
# B5: anti-CD20 human IgG1 L234D/L235Q/G236R (antibody)
# heavy: B4 heavy with H239Q
# light: B1 light
# notes: also called 2-9; 1-27
# B6: anti-CD20 human IgG1 L234D/L235S/G236R (antibody)
# heavy: B4 heavy with H239S
# light: B1 light
# notes: also called 2-10; 1-29
# B7: anti-CD20 human IgG1 L234D/L235T/G236R (antibody)
# heavy: B4 heavy with H239T
# light: B1 light
# notes: also called 2-11; 1-30
# B8: anti-CD20 human IgG1 L234E/L235D/G236R (antibody)
# heavy: B4 heavy with D238E, H239D
# light: B1 light
# notes: also called 2-12; 1-33
# B9: anti-CD20 human IgG1 L234E/L235H/G236R (antibody)
# heavy: B4 heavy with D238E
# light: B1 light
# notes: also called 2-13; 1-36
# B10: anti-CD20 human IgG1 L234E/L235I/G236R (antibody)
# heavy: B4 heavy with D238E, H239I
# light: B1 light
# notes: also called 2-14; 1-37
# B11: anti-CD20 human IgG1 L234E/L235V/G236R (antibody)
# heavy: B4 heavy with D238E, H239V
# light: B1 light
# notes: also called 2-16; 1-46
# B12: anti-CD20 human IgG1 L234G/L235H/G236R (antibody)
# heavy: B4 heavy with D238G
# light: B1 light
# notes: also called 2-17; 1-51
# B13: anti-CD20 human IgG1 L234G/L235Q/G236R (antibody)
# heavy: B4 heavy with D238G, H239Q
# light: B1 light
# notes: also called 2-18; 1-57
# B14: anti-CD20 human IgG1 L234H/L235I/G236R (antibody)
# heavy: B4 heavy with D238H, H239I
# light: B1 light
# notes: also called 2-20; 1-67
# B15: anti-CD20 human IgG1 L234K/L235T/G236R (antibody)
# heavy: B4 heavy with D238K, H239T
# light: B1 light
# notes: also called 2-25; 1-90
# B16: anti-CD20 human IgG1 L234Q/G236R (antibody)
# heavy: not shown
# light: B1 light
# notes: also called 2-30
# B17: anti-CD20 human IgG1 L234R/G236R (antibody)
# heavy: not shown
# light: B1 light
# notes: also called 2-41
# B18: anti-CD20 human IgG1 L234S/L235V/G236R (antibody)
# heavy: B4 heavy with D238S, H239V
# light: B1 light
# notes: also called 2-53
# B19: anti-CD20 human IgG1 L234T/L235V/G236R (antibody)
# heavy: B4 heavy with D238T, H239V
# light: B1 light
# notes: also called 2-64
# B20: anti-CD20 human IgG1 L234D/G236R (antibody)
# heavy: not shown
# light: B1 light
# notes: also called 2-8; 1-24
# B21: anti-CD20 human IgG1 L234K/L235Q/G236R (antibody)
# heavy: B4 heavy with D238K, H239Q
# light: B1 light
# notes: also called 2-22; 1-87
# B22: anti-CD20 human IgG1 L235G/G236R (antibody)
# heavy: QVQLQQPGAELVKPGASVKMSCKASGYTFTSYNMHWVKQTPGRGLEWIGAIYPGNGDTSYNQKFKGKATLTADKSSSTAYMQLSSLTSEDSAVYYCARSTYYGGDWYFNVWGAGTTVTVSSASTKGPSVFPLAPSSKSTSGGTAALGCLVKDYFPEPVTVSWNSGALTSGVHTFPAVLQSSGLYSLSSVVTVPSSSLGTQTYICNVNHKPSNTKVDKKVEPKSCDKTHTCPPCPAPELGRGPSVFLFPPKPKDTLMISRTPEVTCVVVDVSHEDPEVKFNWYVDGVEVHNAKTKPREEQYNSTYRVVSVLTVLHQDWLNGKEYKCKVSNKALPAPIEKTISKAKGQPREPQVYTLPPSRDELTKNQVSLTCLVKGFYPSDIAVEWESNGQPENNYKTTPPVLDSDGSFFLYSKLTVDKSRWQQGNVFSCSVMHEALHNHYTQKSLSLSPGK
# light: B1 light
# notes: also called 2-83
# Target: T1, Histidine-tagged recombinant human FcγRI (CD64) (human, UniProt P12314 16-288, limits assumed)
# T1 construct: bought
# Experiment: SPR, His-FcγRI captured; mean;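 further: biacore T200 SPR at 25 °C, anti-His surface capturing FcγRI, Fc-variant antibodies injected at 100 µg/mL for 1 min, signal near injection end minus third buffer blank, three repeats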
# Protocol: (§1) Binding analysis was carried out by surface plasmon resonance at 25° C. using a Biacore® T200 instrument with Biacore® T200 control software. The sample compartment was held at 5° C. The running buffer (HBS-EP+) consisted of 0.01 M HEPES pH 7.4, containing 0.15 M NaCl, 3 mM EDTA, and 0.05% v/v Surfactant P20. Methods were run using the manufacturer's standard method wizards as described in the Biacore® T200 Instrument Handbook.
# (§2) The cell was activated by treatment with EDC/NHS for 7 min. The antibody was diluted to 10 μg/mL in 10 mM sodium acetate pH 5.0 and injected for 7 min at 5 μL/min. The flow cell was deactivated by injection of 1M ethanolamine for 7 min. This process was repeated in the absence of anti-his antibody on a separate flow cell to generate a reference surface. […] Samples of purified antibodies comprising variant Fc regions (1 mg/mL in PBS) were diluted with running buffer to 100 μg/mL and were injected for 1 min at 30 μL/min and allowed to disassociate for 2 min. Between each cycle, the chip was regenerated by injection of 10 mM glycine pH 3.0 for 0.5 min at a flow rate of 30 μL/min and recharged with a fresh injection of FcγRI. At the beginning of each experiment, three blank cycles were run, with buffer alone being injected instead of test sample. The average SPR signal (relative to the reference cell) was measured in a window approximately 8 to 13 seconds before the injection of test sample (baseline) and approximately 3 to 8 seconds before the end of injection (response). The response of the third of the blank (buffer) samples was subtracted from the response of each test sample in order to allow for any dissociation of the bound FcγRI giving a corrected response for each test sample. The whole experiment was repeated three times with the test samples being analysed in different orders each time.
row,Binder,"Corrected response (RU), Mean [RU]"
1,B1,70.4
2,B2,4.4
3,B3,14.3
4,B4,5.2
5,B5,6.2
6,B6,3.4
7,B7,4.3
8,B8,12.3
9,B9,5.1
10,B10,10.4
11,B11,5.9
12,B12,10.1
13,B13,5.3
14,B14,15.6
15,B15,-0.6
16,B16,39.3
17,B17,5.2
18,B18,2.4
19,B19,3.9

# Target: T1, Histidine-tagged recombinant human …
# Experiment: SPR, His-FcγRI captured; Expt 1;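 further: SPR at 25 °C on anti-His antibody chip capturing FcγRI, Fc-variant antibodies injected at 100 µg/mL for 1 min, signal near end of injection minus buffer blank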
# Protocol: as §1, §2
row,Binder,Corrected response (RU)
1,B2,6.3
2,B3,14.6
3,B20,135
4,B4,4.3
5,B5,5.7
6,B7,3
7,B8,15.1
8,B9,4.6
9,B10,11.6
10,B11,4.8
11,B12,1.8
12,B13,4.4
13,B14,13.1
14,B15,-1.8
15,B16,41.9
16,B18,0.7

# Target: T1, Histidine-tagged recombinant human …
# Experiment: SPR, His-FcγRI captured; Expt 2;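 further: biacore T200 SPR at 25 °C, Fc-variant antibodies at 100 µg/mL flowed 1 min over anti-His-captured receptor, signal read near injection end minus third buffer blank; antibody analyte injected at 100 µg/mL for 1 min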
# Protocol: as §1, §2
row,Binder,Corrected response (RU)
1,B1,49.3
2,B3,11.2
3,B20,77.7
4,B4,3.8
5,B5,5.9
6,B6,2.7
7,B7,4.3
8,B8,9.4
9,B9,4.5
10,B10,8.1
11,B11,5.5
12,B12,4.2
13,B13,5.2
14,B14,10.9
15,B21,6.1
16,B15,-1
17,B16,27
18,B17,3.9
19,B19,3.6
20,B22,125

# Target: T1, Histidine-tagged recombinant human …
# Experiment: SPR, His-FcγRI captured; Expt 3;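 further: biacore T200 SPR at 25 °C, Fc-variant antibodies at 100 µg/mL flowed 1 min over anti-His-captured FcγRI, signal taken just before injection end minus a buffer blank cycle; antibody analyte injected at 100 µg/mL for 1 min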
row,Binder,Corrected response (RU)
1,B1,74.7
2,B2,5.2
3,B3,17.3
4,B4,7.7
5,B5,7.1
6,B6,3.6
7,B7,5.5
8,B8,12.3
9,B9,6.2
10,B10,11.7
11,B11,7.4
12,B12,24.4
13,B13,6.1
14,B14,22.8
15,B21,5.8
16,B15,1.1
17,B16,49
18,B17,10.7
19,B18,4.3
20,B19,5.4
